Results as given in PMC3008968.

Key:
[1] = biological target: Cephalosporium lectin (Cephalosporium (isolated from the corneal smears of a keratitis patient)); test: SEC; gel filtration on a Superdex G-75 column in PBS, calibrated with standard proteins; 57 kDa compared with the 14 kDa subunit mass by SDS-PAGE
[2] = biological target: Cephalosporium lectin (Cephalosporium (isolated from the corneal smears of a keratitis patient))

**Q.** Cephalosporium lectin (natural protein) was tested. Which stoichiometry N [1] did it give?
**A.** 4

**Q.** Which minimum concentration required to inhibit hemagglutination of trypsinized human erythrocytes by CSL (hapten inhibition, MIC) [2] does the source give for “Mucin (porcine stomach, type III) (natural protein)” here?
**A.** 0.785 μg/50 μl

B1: fetuin (fetal calf serum) (natural protein)
chain: IPLDPVAGYKEPACDDPDTEQAALAAVDYINKHLPRGYKHTLNQIDSVKVWPRRPTGEVYDIEIDTLETTCHVLDPTPLANCSVRQQTQHAVEGDCDIHVLKQDGQFSVLFTKCDSSPDSAEDVRKLCPDCPLLAPLNDSRVVHAVEVALATFNAESNGSYLQLVEISRAQFVPLPVSVSVEFAVAATDCIAKEVVDPTKCNLLAEKQYGFCKGSVIQKALGGEDVRVTCTLFQTQPVIPQPQPDGAEAEAPSAVPDAAGPTPSAAGPPVASVVVGPSVVAVPLPLHRAHYDLRHTFSGVASVESSSGEAFHVGKTPIVGQPSIPGGPVRLCPGRIRYFKI
**Q.** How did the minimum concentration required to inhibit hemagglutination of trypsinized human erythrocytes by CSL (hapten inhibition, MIC) [2] turn out when B1 was run?
**A.** 6.25 μg/50 μl

B2: Asialofetuin (natural protein)
chain: IPLDPVAGYKEPACDDPDTEQAALAAVDYINKHLPRGYKHTLNQIDSVKVWPRRPTGEVYDIEIDTLETTCHVLDPTPLANCSVRQQTQHAVEGDCDIHVLKQDGQFSVLFTKCDSSPDSAEDVRKLCPDCPLLAPLNDSRVVHAVEVALATFNAESNGSYLQLVEISRAQFVPLPVSVSVEFAVAATDCIAKEVVDPTKCNLLAEKQYGFCKGSVIQKALGGEDVRVTCTLFQTQPVIPQPQPDGAEAEAPSAVPDAAGPTPSAAGPPVASVVVGPSVVAVPLPLHRAHYDLRHTFSGVASVESSSGEAFHVGKTPIVGQPSIPGGPVRLCPGRIRYFKI
modifications: asialo form (asialofetuin)
**Q.** For B2, which minimum concentration required to inhibit hemagglutination of trypsinized human erythrocytes by CSL (hapten inhibition, MIC) [2] is on record?
**A.** 12.5 μg/50 μl
